Our source for the Kd values is patent US20120027722A1 (MEDICAL RESEARCH COUNCIL, published 2012).

One may read the Kd as the equilibrium constant for the complex coming apart. Lower therefore signals a tighter complex.

The target of assay [1] is T1, soluble HCV E2 truncated at amino acid 661 (sE2661), His-tagged (Hepatitis C virus (isolate )).
T1 construct: extracellular domain; also called soluble E2
The assay can be described thus: SPR (BIAcore), sE2. On the technique in general: SPR reads the build-up and loss of mass on a sensor chip optically.

The target in assay [2] is T2, HCV E1E2 heterodimer expressed on the surface of 293T cells (Hepatitis C virus (isolate )).
T2 construct: whole, on cells; also called cell surface expressed E2; E1E2 Scatchard
As to the kind of experiment: Scatchard analysis, 125I-Fab versus unlabeled Fab on E1E2-transfected 293T cells.

B1: RH-C/RK2b Fab (Fab, V domains shown)
VH: QVQLQESGPGLVKPSETLSLTCTVSGDSITSGYWNWIRQPPGRALEWMGYISYSGSTYYNLSLRSRITISRDTSKNQYSLRLSSVTAADTAMYYCALITTTTYAMDYWGQGTTVTVSS
VL: EIVLTQSPSSLSASVGDRVTITCRASESVDGYGNSFLHWFQQKPGKAPKLLIYLASNLNSGVPSRFSGSGSGTDFTLTISSLQPEDFATYYCQQNNVDPWTFGQGTKLEIK
notes: also called Fab fragment of RH-C/RK2b
Consider B1, for which the Kd in assay [1] was approximately 0.5 nM; in assay [2] it was 50 nM.
